What was measured:
Assay in all cases: GST pull-down of in vitro translated 35S-labeled protein, autoradiography; '-' = no interaction
[1] = target: T1, FADD (in vitro translated, 35S-labeled) (human, UniProt Q13158 1-208)
T1 sequence (looked up): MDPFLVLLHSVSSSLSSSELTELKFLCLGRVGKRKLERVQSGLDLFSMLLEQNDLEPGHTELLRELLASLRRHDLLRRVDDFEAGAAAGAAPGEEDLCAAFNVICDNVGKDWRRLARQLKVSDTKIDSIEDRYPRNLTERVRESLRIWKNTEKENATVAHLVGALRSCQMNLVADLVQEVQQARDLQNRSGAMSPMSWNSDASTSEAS

[2] = target: RAIDD (in vitro translated, 35S-labeled) (human, UniProt P78560 1-199)
Sequence of RAIDD (in vitro translated, 35S-labeled) (P78560 whole entry): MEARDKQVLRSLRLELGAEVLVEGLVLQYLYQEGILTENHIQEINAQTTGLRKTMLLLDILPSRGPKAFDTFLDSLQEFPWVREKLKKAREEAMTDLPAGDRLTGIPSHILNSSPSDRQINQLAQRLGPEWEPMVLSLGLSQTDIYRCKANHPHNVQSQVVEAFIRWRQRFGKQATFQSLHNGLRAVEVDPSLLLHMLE

[3] = target: T2, RIP (in vitro translated, 35S-labeled) (human, UniProt Q13546 1-671, limits assumed)
T2 sequence (looked up): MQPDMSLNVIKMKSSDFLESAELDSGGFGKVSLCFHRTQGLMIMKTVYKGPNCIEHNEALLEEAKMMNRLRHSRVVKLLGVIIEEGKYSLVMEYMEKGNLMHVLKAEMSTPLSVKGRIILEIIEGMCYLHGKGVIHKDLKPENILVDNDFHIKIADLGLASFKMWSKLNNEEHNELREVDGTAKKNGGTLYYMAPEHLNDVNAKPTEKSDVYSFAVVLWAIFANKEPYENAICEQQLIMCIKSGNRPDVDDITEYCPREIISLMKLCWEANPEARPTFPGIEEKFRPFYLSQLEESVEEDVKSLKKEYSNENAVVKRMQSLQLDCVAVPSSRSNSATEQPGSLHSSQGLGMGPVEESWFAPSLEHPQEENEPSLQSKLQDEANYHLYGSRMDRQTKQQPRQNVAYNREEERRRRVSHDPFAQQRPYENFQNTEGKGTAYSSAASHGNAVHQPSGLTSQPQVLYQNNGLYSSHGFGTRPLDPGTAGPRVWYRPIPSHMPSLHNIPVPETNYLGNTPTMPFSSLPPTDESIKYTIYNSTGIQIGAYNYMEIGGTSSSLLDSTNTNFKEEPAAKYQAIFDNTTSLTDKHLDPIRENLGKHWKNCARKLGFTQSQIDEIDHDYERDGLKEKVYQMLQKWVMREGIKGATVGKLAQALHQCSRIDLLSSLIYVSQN

[4] = target: c-Flip (in vitro translated, 35S-labeled) (human, UniProt O15519 1-480)
Sequence of c-Flip (in vitro translated, 35S-labeled) (O15519 whole entry): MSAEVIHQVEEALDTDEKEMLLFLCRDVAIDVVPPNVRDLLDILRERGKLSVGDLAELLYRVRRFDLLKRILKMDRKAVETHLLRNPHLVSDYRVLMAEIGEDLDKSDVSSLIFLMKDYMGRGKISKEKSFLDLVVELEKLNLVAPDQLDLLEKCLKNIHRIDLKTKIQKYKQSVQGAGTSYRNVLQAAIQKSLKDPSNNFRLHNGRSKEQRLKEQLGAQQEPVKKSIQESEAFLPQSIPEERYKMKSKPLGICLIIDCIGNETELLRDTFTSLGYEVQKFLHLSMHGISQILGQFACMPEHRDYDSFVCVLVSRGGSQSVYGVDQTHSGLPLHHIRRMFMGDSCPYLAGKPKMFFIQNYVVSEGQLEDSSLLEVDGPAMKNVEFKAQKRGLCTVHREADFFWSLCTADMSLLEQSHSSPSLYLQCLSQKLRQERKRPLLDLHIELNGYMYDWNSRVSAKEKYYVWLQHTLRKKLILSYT

[5] = target: Dr-4 (in vitro translated, 35S-labeled) (human, UniProt O00220 1-468, limits assumed)
[6] = target: Dr-5 (in vitro translated, 35S-labeled) (human, UniProt O14763 1-440, limits assumed)
[7] = target: T3, Fas (in vitro translated, 35S-labeled) (human, UniProt P25445 1-335, limits assumed)
T3 construct: also called Fas [CD95]
T3 sequence (looked up): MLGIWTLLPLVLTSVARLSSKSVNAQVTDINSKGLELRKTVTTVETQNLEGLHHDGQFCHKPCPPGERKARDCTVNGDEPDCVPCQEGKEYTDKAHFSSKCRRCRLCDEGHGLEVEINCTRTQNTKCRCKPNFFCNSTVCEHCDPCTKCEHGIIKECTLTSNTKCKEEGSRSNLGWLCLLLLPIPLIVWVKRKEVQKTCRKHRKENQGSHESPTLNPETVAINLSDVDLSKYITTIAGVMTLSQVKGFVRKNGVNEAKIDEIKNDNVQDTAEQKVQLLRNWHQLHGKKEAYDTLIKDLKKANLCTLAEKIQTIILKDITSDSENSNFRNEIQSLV

[8] = target: T4, TNF-RI (in vitro translated, 35S-labeled) (human, UniProt P19438 1-455, limits assumed)
T4 construct: also called TNFR1
T4 sequence (looked up): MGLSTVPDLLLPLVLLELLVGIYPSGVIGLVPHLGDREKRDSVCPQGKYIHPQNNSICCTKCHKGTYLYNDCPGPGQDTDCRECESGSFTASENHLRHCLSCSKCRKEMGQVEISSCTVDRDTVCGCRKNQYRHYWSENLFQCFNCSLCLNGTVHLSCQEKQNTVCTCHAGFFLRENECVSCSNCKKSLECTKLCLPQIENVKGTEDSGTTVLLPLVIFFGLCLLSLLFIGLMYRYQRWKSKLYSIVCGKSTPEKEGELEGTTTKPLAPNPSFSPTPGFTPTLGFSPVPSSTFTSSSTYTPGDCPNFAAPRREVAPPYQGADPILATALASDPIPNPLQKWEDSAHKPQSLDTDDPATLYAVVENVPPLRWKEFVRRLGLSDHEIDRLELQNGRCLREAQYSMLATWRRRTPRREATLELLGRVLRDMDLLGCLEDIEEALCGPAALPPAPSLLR

Measured: binding result

B1: GST-CD40 (cytosolic domain) (other, UniProt P25942 216-277, looked up)
chain: KKVAKKPTNKAPHPKQEPQEINFPDDLPGSNTAAPVQETLHGCQPVTQEDGKESRISVQERQ
notes: domain: cytosolic domain; Control fusion protein; not shown: glutathione S-transferase
no binding: all assays above

— patent US20030049702A1 (BURNHAM INSTITUTE, published 2003)
